In US20250333484A1 (US Dept. of Health and Human Services, published 2025):

What was measured:
[1] = target: T1, 676 aa long full-length GP probe (EBOV glycoprotein) (Ebola virus (EBOV), UniProt Q05320 33-676); test: BLI kinetics on full-length GP with the mAb114 site blocked
T1 sequence: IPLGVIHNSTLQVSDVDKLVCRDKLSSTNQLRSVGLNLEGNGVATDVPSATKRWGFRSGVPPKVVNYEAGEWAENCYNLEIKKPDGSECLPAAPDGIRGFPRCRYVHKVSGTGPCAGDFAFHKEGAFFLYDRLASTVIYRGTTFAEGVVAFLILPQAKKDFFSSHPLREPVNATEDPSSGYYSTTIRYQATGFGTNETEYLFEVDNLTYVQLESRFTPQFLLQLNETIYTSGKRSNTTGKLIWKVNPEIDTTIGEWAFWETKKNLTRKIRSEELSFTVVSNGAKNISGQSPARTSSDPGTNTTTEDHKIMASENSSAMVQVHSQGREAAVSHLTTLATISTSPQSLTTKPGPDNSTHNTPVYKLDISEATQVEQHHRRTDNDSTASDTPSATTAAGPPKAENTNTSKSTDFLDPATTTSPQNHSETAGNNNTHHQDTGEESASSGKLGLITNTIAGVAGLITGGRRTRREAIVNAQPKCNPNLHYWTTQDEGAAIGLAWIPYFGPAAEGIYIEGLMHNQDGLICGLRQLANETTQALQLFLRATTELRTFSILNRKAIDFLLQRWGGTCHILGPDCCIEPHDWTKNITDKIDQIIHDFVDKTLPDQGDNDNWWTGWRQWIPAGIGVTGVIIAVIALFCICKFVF

[2] = target: T1, 676 aa long full-length GP probe (EBOV …)
[3] = target: T1, 676 aa long full-length GP probe (EBOV …); test: BLI saturation binding, full probe on sensor

B1: FabA09 (Fab of parental mAbA09) (Fab, V domains shown)
VH: QVQLQESGPGLVKPSETLSLTCVVSGGILSSFYWNWIRQPPGKGLEWIGNIYYSGSPNYNASFQSRVAISVDTSKNQISLNLKSVTAADTAMYYCVRASRAYLWGSYRPTALDLWGQGSLVTVSS
VL: SYELTQPPSVSVSPGQTATITCSGDKLGDKYTSWFQQRPGQSPLLVIYQDNKRPSGLPARFSGSNSGNTATLTISGTQAMDEADYLCQVWDSGAVFGGGTKLTVL
- fold on-rate against BiSp107 [1]: 3.4 fold

B2: BiSp107 (mAb114×A09) CrossMab bispecific IgG (bispecific antibody)
heavy 1: not shown
light 1: DIQMTQSPSSLSASVGDRITITCRASQAFDNYVAWYQQRPGKVPKLLISAASALHAGVPSRFSGSGSGTHFTLTISSLQPEDVATYYCQNYNSAPLTFGGGTKVEIKSSASTKGPSVFPLAPSSKSTSGGTAALGCLVKDYFPEPVTVSWNSGALTSGVHTFPAVLQSSGLYSLSSVVTVPSSSLGTQTYICNVNHKPSNTKVDKKVEPKSC
heavy 2: not shown
light 2: SYELTQPPSVSVSPGQTATITCSGDKLGDKYTSWFQQRPGQSPLLVIYQDNKRPSGLPARFSGSNSGNTATLTISGTQAMDEADYLCQVWDSGAVFGGGTKLTVLGQPKAAPSVTLFPPSSEELQANKATLVCLISDFYPGAVTVAWKADSSPVKAGVETTTPSKQSNNKYAASSYLSLTPEQWKSHRSYSCQVTHEGSTVEKTVAPTECS
- fold difference in binding kinetics against parental Fab [2]: ≤ 3 fold

B3: mAb114 (parental IgG) (antibody, V domains shown)
VH: EVQLVESGGGLIQPGGSLRLSCAASGFALRMYDMHWVRQTIDKRLEWVSAVGPSGDTYYADSVKGRFAVSRENAKNSLSLQMNSLTAGDTAIYYCVRSDRGVAGLFDSWGQGILVTVSS
VL: DIQMTQSPSSLSASVGDRITITCRASQAFDNYVAWYQQRPGKVPKLLISAASALHAGVPSRFSGSGSGTHFTLTISSLQPEDVATYYCQNYNSAPLTFGGGTKVEIKS
- fold binding response at saturation against A09 [3]: 2 fold
